From the Human Domainome abundance scans (Beltran et al. 2025) come the findings set out here.

The chains are these.
B1: Nucleosome-remodeling factor subunit BPTF, residues 2862 to 2918; numbered along this chain, Q12830 (parent)
chain: TKKDTKLYCICKTPYDESKFYIGCDRCQNWYHGRCVGILQSEAELIDEYVCPQCQST

± gives the uncertainty stated by the source.

In this series the parent is B1. As to the kind of experiment: abundance fitness (aPCA) (normalised: wild type 0, dead -1); higher = more abundant; growth selection in yeast, the domain comes from the species named. The conditions noted are these: Homo sapiens.
For TKKDTKLYCICKTPYDESKFYIGCDRCQNWYHGRCVGILQSEAELIDEYVYPQCQST [C51Y], the abundance fitness is -0.928 ± 0.14. To TKKDTKLYCICKTPYDESKFYIGCDRCQNWYHGRCVGILQSEAELIDEYVIPQCQST [C51I] belongs -1.08 ± 0.17. Take TKKDTKLYCICKTPYDESKFYIGCDRCQNWYHGRCVGILQSEAELIDEYVLPQCQST [C51L]: the abundance fitness was -0.889 ± 0.093.

With TKKDTKLYCICKTPYDESKFYIGCDRCQNWYHGRCVGILQSEAELIDEYVKPQCQST [C51K], the abundance fitness was -0.774 ± 0.16. Turning to TKKDTKLYCICKTPYDESKFYIGCDRCQNWYHGRCVGILQSEAELIDEYVRPQCQST [C51R], the abundance fitness was -0.743 ± 0.088. Take TKKDTKLYCICKTPYDESKFYIGCDRCQNWYHGRCVGILQSEAELIDEYVPPQCQST [C51P]: the abundance fitness was -0.919 ± 0.19. Take TKKDTKLYCICKTPYDESKFYIGCDRCQNWYHGRCVGILQSEAELIDEYVNPQCQST [C51N]: the abundance fitness is -0.904 ± 0.16.

Take TKKDTKLYCICKTPYDESKFYIGCDRCQNWYHGRCVGILQSEAELIDEYVQPQCQST [C51Q]: the abundance fitness is -0.98 ± 0.15.

For the variant TKKDTKLYCICKTPYDESKFYIGCDRCQNWYHGRCVGILQSEAELIDEYVEPQCQST [C51E], the abundance fitness was -0.75 ± 0.096.

On to TKKDTKLYCICKTPYDESKFYIGCDRCQNWYHGRCVGILQSEAELIDEYVHPQCQST [C51H], for which the abundance fitness was -0.848 ± 0.23. For TKKDTKLYCICKTPYDESKFYIGCDRCQNWYHGRCVGILQSEAELIDEYVCPQCLST [Q55L] the value was -0.157 ± 0.078; for TKKDTKLYCICKTPYDESKFYIGCDRCQNWYHGRCVGILQSEAELIDEYVCPQCDST [Q55D], 0.174 ± 0.1; for TKKDTKLYCICKTPYDESKFYIGCDRCQNWYHGRCVGILQSEAELIDEYVCPQCKST [Q55K], 0.021 ± 0.11. Consider TKKDTKLYCICKTPYDESKFYIGCDRCQNWYHGRCVGILQSEAELIDEYVCPQCFST [Q55F], for which the abundance fitness was -0.375 ± 0.13. As for TKKDTKLYCICKTPYDESKFYIGCDRCQNWYHGRCVGILQSEAELIDEYVCPQCPST [Q55P], the abundance fitness is -0.101 ± 0.094.

Consider TKKDTKLYCICKTPYDESKFYIGCDRCQNWYHGRCVGILQSEAELIDEYVCPQCAST [Q55A], for which the abundance fitness is -0.025 ± 0.084. Take TKKDTKLYCICKTPYDESKFYIGCDRCQNWYHGRCVGILQSEAELIDEYVCPQCTST [Q55T]: the abundance fitness was -0.196 ± 0.076. For TKKDTKLYCICKTPYDESKFYIGCDRCQNWYHGRCVGILQSEAELIDEYVCPQCEST [Q55E] the value was 0.01 ± 0.094. As to TKKDTKLYCICKTPYDESKFYIGCDRCQNWYHGRCVGILQSEAELIDEYVCPQCYST [Q55Y], the abundance fitness is -0.474 ± 0.13. With TKKDTKLYCICKTPYDESKFYIGCDRCQNWYHGRCVGILQSEAELIDEYVCPQCWST [Q55W], the abundance fitness is -0.245 ± 0.099.

For the variant TKKDTKLYCICKTPYDESKFYIGCDRCQNWYHGRCVGILQSEAELIDEYVCPQCIST [Q55I], the abundance fitness is -0.141 ± 0.12. Regarding TKKDTKLYCICKTPYDESKFYIGCDRCQNWYHGRCVGILQSEAELIDEYVCPQCNST [Q55N], the abundance fitness is -0.09 ± 0.12.

Consider TKKDTKLYCICKTPYDESKFYIGCDRCQNWYHGRCVGILQSEAELIDEYVCPQCMST [Q55M], for which the abundance fitness was -0.188 ± 0.095. For TKKDTKLYCICKTPYDESKFYIGCDRCQNWYHGRCVGILQSEAELIDEYVCPQCGST [Q55G] the value was -0.187 ± 0.075; for TKKDTKLYCICKTPYDESKFYIGCDRCQNWYHGRCVGILQSEAELIDEYVCPQCCST [Q55C], -0.072 ± 0.09; for TKKDTKLYCICKTPYDESKFYIGCDRCQNWYHGRCVGILQSEAELIDEYVCPQCVST [Q55V], -0.18 ± 0.08. As to TKKDTKLYCICKTPYDESKFYIGCDRCQNWYHGRCVGILQSEAELIDEYVCPQCRST [Q55R], the abundance fitness was -0.142 ± 0.068. TKKDTKLYCICKTPYDESKFYIGCDRCQNWYHGRCVGILQSEAELIDEYVCPQCHST [Q55H]: the abundance fitness was -0.167 ± 0.12. Take TKKDTKLYCICKTPYDESKFYIGCDRCQNWYHGRCVGILQSEAELIDEYWCPQCQST [V50W]: the abundance fitness is -0.156 ± 0.078.

As to TKKDTKLYCICKTPYDESKFYIGCDRCQNWYHGRCVGILQSEAELIDEYYCPQCQST [V50Y], the abundance fitness is -0.357 ± 0.11. To TKKDTKLYCICKTPYDESKFYIGCDRCQNWYHGRCVGILQSEAELIDEYVCTQCQST [P52T] belongs -0.071 ± 0.079; to TKKDTKLYCICKTPYDESKFYIGCDRCQNWYHGRCVGILQSEAELIDEYVCAQCQST [P52A], -0.058 ± 0.08; to TKKDTKLYCICKTPYDESKFYIGCDRCQNWYHGRCVGILQSEAELIDEYVCMQCQST [P52M], -0.149 ± 0.11. On to TKKDTKLYCICKTPYDESKFYIGCDRCQNWYHGRCVGILQSEAELIDEYVCYQCQST [P52Y], for which the abundance fitness is -0.327 ± 0.14. On to TKKDTKLYCICKTPYDESKFYIGCDRCQNWYHGRCVGILQSEAELIDEYVCSQCQST [P52S], for which the abundance fitness turned out to be 0.054 ± 0.082. Turning to TKKDTKLYCICKTPYDESKFYIGCDRCQNWYHGRCVGILQSEAELIDEYVCKQCQST [P52K], the abundance fitness was 0.126 ± 0.1. For the variant TKKDTKLYCICKTPYDESKFYIGCDRCQNWYHGRCVGILQSEAELIDEYVCVQCQST [P52V], the abundance fitness is -0.017 ± 0.08. For TKKDTKLYCICKTPYDESKFYIGCDRCQNWYHGRCVGILQSEAELIDEYVCDQCQST [P52D], the abundance fitness is 0.113 ± 0.12. Turning to TKKDTKLYCICKTPYDESKFYIGCDRCQNWYHGRCVGILQSEAELIDEYVCEQCQST [P52E], the abundance fitness was 0.009 ± 0.091. As for TKKDTKLYCICKTPYDESKFYIGCDRCQNWYHGRCVGILQSEAELIDEYVCQQCQST [P52Q], the abundance fitness was -0.033 ± 0.12. As to TKKDTKLYCICKTPYDESKFYIGCDRCQNWYHGRCVGILQSEAELIDEYVCIQCQST [P52I], the abundance fitness is -0.108 ± 0.14. In the case of TKKDTKLYCICKTPYDESKFYIGCDRCQNWYHGRCVGILQSEAELIDEYVCWQCQST [P52W], the abundance fitness was -0.345 ± 0.13.

Regarding TKKDTKLYCICKTPYDESKFYIGCDRCQNWYHGRCVGILQSEAELIDEYVCCQCQST [P52C], the abundance fitness was -0.186 ± 0.11. For TKKDTKLYCICKTPYDESKFYIGCDRCQNWYHGRCVGILQSEAELIDEYVCRQCQST [P52R] the value was -0.048 ± 0.077; for TKKDTKLYCICKTPYDESKFYIGCDRCQNWYHGRCVGILQSEAELIDEYVCGQCQST [P52G], -0.019 ± 0.079. On to TKKDTKLYCICKTPYDESKFYIGCDRCQNWYHGRCVGILQSEAELIDEYVCLQCQST [P52L], for which the abundance fitness is -0.125 ± 0.076. To TKKDTKLYCICKTPYDESKFYIGCDRCQNWYHGRCVGILQSEAELIDEYVCFQCQST [P52F] belongs 0.032 ± 0.12.
